Series [1] relates to tyrosinase isolated from Agaricus bisporus. Conditions: cited from earlier work.
The target of series [2] is T1, tyrosinase of B16 mouse melanoma cells (Mus musculus, UniProt P11344).
T1 construct: tyrosinase of B16 mouse melanoma cells; host or cells: B16 mouse melanoma cells
T1 sequence (P11344 19-533): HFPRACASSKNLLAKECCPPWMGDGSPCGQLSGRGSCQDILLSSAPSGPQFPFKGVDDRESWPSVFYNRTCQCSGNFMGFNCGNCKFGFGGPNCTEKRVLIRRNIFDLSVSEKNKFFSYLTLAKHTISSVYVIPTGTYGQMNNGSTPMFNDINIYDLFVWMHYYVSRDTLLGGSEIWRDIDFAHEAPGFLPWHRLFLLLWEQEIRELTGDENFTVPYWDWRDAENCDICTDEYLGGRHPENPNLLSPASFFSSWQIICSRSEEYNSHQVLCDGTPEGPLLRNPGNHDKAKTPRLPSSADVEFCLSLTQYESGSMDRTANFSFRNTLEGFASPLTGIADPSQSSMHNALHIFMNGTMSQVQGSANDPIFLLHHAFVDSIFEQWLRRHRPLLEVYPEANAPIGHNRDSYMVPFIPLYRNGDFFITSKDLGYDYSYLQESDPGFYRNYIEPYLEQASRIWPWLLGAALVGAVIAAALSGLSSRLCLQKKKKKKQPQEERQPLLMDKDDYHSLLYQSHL
Conditions: cited from earlier work.

Series [3] in a line: enzyme activity assay of refolded recombinant human tyrosinase with L-Dopa as enzyme substrate (A475). Conditions: for Specificity / Total enzyme activity: 10 L of the starting material, L-Dopa as enzyme substrate. Type of series: biochemical. The protocol:
In order to analyze the enzyme activity of the aforementioned refolded recombinant human tyrosinase, […] of 50 mM PBS buffer (pH 7.0), and […] crude extract containing refolded recombinant human tyrosinase were mixed and left standing for 5 minutes at 37° C. Subsequently, […] L-Dopa was added (to a final concentration of 3 mM) to the mixture as an enzyme substrate and reacted for 30 minutes at 37° C. The absorbance at A475 was measured using a spectrophotometer.
The final yield of the purification, the total amount of the proteins, the enzyme activity and the analysis of the specificity were summarized in Table 1. Table 1 summarizes the results of 10 L of the starting material, and L-Dopa was used as an enzyme substrate in the enzyme activity assay.

Regarding α-arbutin, in series [1], the “inhibitory effects on tyrosinase” value was “does not exhibit any inhibitory effects”. Besides, the inhibition of tyrosinase result in series [2] was “significantly inhibits”.

B1: recombinant human tyrosinase: mature human tyrosinase of 512 amino acids, about 57 kDa, expressed in E. coli BL21(DE3)/pET-23a(+)-RHT and refolded (protein, UniProt P14679 19-529, looked up)
Tyrosinase: HFPRACVSSKNLMEKECCPPWSGDRSPCGQLSGRGSCQNILLSNAPLGPQFPFTGVDDRESWPSVFYNRTCQCSGNFMGFNCGNCKFGFWGPNCTERRLLVRRNIFDLSAPEKDKFFAYLTLAKHTISSDYVIPIGTYGQMKNGSTPMFNDINIYDLFVWMHYYVSMDALLGGSEIWRDIDFAHEAPAFLPWHRLFLLRWEQEIQKLTGDENFTIPYWDWRDAEKCDICTDEYMGGQHPTNPNLLSPASFFSSWQIVCSRLEEYNSHQSLCNGTPEGPLRRNPGNHDKSRTPRLPSSADVEFCLSLTQYESGSMDKAANFSFRNTLEGFASPLTGIADASQSSMHNALHIYMNGTMSQVQGSANDPIFLLHHAFVDSIFEQWLRRHRPLQEVYPEANAPIGHNRESYMVPFIPLYRNGDFFISSKDLGYDYSYLQDSDPDSFQDYIKSYLEQASRIWSWLLGAAMVGAVLTALLAGLVSLLCRHKRKQLPEEKQPLLMEKEDYHSLYQSHL
For the molecule B1, the figures for the tyrosinase activity in series [3] (after isolation from the crude extract using ion-exchange chromatography) and in series [3] (by using gel filtration chromatography) were 15.5 units/mg and 57.7 units 1 mg, respectively.

B2: DEAE ion-exchange: recombinant human tyrosinase fractions after DEAE sepharose Fast Flow ion-exchange chromatography (protein, UniProt P14679 19-529, looked up)
Tyrosinase: B1 Tyrosinase
B2: in series [3], the Specificity is recorded as 15.5 units/mg and the Total enzyme activity is listed as 1383.1 units.

B3: Gel filtration: recombinant human tyrosinase fractions after Sephacryl S-100 HR gel filtration chromatography (protein, UniProt P14679 19-529, looked up)
Tyrosinase: B1 Tyrosinase
Consider B3, for which, in series [3], the Specificity is reported as 57.7 units/mg and the Total enzyme activity is 144.3 units.

The values are drawn from patent US20130280784A1, “ESCHERICHIA COLI EXPRESSION SYSTEM FOR PRODUCING MATURE HUMAN TYROSINASE AND A PRODUCING METHOD THEREOF” (PROVIDENCE UNIVERSITY, priority 2012, published 2013).
